Test results as given in US6733762.
Where “and” joins values, the source holds several entries; their conditions need not be identical. Equal entries are not always repeated.

How the values were obtained:
[1] = molecular target: Zot receptor / Zot binding sites on human monocytes/macrophages (CD14+) (human); assay: flow cytometry, MFI converted with Quantum 26 MESF kit, saturation conditions
[2] = molecular target: Zot binding sites on human T lymphocytes (CD3+) (human); assay: as above
[3] = molecular target: Zot receptor / Zot binding sites on human monocytes/macrophages (CD14+) (human); assay: flow cytometry, MESF calibration, several volunteers
[4] = molecular target: Zot binding sites on human T lymphocytes (CD3+) (human); assay: as above
[5] = molecular target: Zot receptor / Zot binding sites on human monocytes/macrophages (CD14+) (human); assay: flow cytometry, MESF calibration, several volunteers; reference: lymphocytes
[6] = molecular target: Zot receptor / Zot binding sites on human monocytes/macrophages (CD14+) (human); assay: real-time flow cytometry at 37 C, Zot-FITC 40 ug/ml, cells gated on CD14
[7] = molecular target: Zot binding sites on human T lymphocytes (CD3+) (human); assay: real-time flow cytometry at 37 C, Zot-FITC 40 ug/ml, cells gated on CD3
[8] = molecular target: Zot receptor / Zot binding sites on human monocytes/macrophages (CD14+) (human); assay: 4-color flow cytometry, Zot-FITC 40 ug/ml on PBMC; reference: T or B lymphocytes
[9] = molecular target: Zot receptor / Zot binding sites on human monocytes/macrophages (CD14+) (human)
[10] = molecular target: Zot receptor / Zot binding sites on human monocytes/macrophages (CD14+) (human); remark: listed apart in the source
[11] = molecular target: Zot binding sites on human T lymphocytes (CD3+) (human)

Zot-FITC (6xHis-Zot conjugated to fluorescein isothiocyanate, Examples 4-7) (from UniProt P38442 1-399)
Zot-binding sites/cell (binding sites/cell) [1]: 106000 | Zot-binding sites/cell (binding sites/cell) [2]: 9000 | Zot binding sites/cell (mean of several volunteers) (binding sites/cell) [3]: 105000 | Zot binding sites/cell (mean of several volunteers) (binding sites/cell) [4]: 10700 | fold of binding sites/cell against lymphocytes [5]: 10 fold | time to reach binding equilibrium [6]: < 2 min | time to reach binding equilibrium [7]: < 2 min | fold of binding against T or B lymphocytes [8]: 5 fold and 8 fold

6xHis-Zot fusion protein (unlabeled) (from UniProt P38442 1-399)
% suppression of Zot-FITC mean fluorescence intensity [9]: 24% and 43%

purified Zot (cleaved from the MBP-Zot fusion protein with Factor Xa) (from UniProt P38442 9-399)
% decrease of Zot-FITC binding [10]: 33% | % decrease of Zot-FITC binding [11]: 33%
